The target of this data set is T1, Tn5 transposase EK54/MA56/LP372 (Escherichia coli transposon Tn5) (UniProt Q46731).
T1 sequence: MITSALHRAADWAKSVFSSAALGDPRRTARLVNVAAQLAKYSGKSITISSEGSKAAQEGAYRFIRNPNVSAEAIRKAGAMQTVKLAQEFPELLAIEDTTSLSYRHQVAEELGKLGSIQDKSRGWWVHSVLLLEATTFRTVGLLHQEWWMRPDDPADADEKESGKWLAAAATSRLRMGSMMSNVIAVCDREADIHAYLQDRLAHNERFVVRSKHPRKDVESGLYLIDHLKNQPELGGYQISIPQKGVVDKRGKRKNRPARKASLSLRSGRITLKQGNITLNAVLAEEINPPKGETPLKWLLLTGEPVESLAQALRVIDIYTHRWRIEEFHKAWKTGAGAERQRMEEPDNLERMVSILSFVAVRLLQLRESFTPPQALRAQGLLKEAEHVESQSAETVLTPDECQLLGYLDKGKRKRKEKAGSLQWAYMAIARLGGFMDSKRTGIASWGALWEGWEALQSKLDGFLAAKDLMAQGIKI
The note with it: pRZTL1 in vitro transposition; Mg acetate 10 mM, K glutamate 0.1 M, 20 C then 37 C; tet-resistance frequency, gel confirmed.

Consider “AGT (double strand) [Tn5 outside end (OE) wild type]”, for which the activity is 0.1 % of cells.

The record behind these values is patent publication US5948622.
